# Patent publication US7718410B2, “In vivo incorporation of alkynyl amino acids into proteins in eubacteria” (The Scripps Research Institute, priority 2004, dated 2010)
# B1: pPRO-PheRS-1: para-propargyloxyphenylalanine aminoacyl-tRNA synthetase isolate-1, derived from wild-type Methanococcus jannaschii tyrosyl tRNA-synthetase (protein)
# chain: MDEFEMIKRNTSEIISEEELREVLKKDEKSAAIGFEPSGKIHLGHYLQIKKMIDLQNAGFDIIILLADLHAYLNQKGELDEIRKIGDYNKKVFEAMGLKAKYVYGSPFQFDKDYTLNVYRLALKTTLKRARRSMELIAREDENPKVAEVIYPIMQVNAIHYAGVDVAVGGMEQRKIHMLARELLPKKVVCIHNPVLTGLDGEGKMSSSKGNFIAVDDSPEEIRAKIKKAYCPAGVVEGNPIMEIAKYFLEYPLTIKRPEKFGGDLTVNSYEELESLFKNKELHPMDLKNAVAEELIKILEPIRKRL
# modifications: para-propargyloxyphenylalanine aminoacyl-tRNA synthetase derived from M. jannaschii tyrosyl tRNA-synthetase
# notes: para-propargyloxyphenylalanine aminoacyl-tRNA synthetase isolate-1, derived from wild-type Methanococcus jannaschii tyrosyl tRNA-synthetase
# System: E. coli
# Assay: Chloramphenicol resistance conferred by the synthetase (amber suppression in the CAT gene)
# Type: cell-based
# Method: Following mutagenesis, the pool of synthetases was then passed through positive and negative rounds of selection. The positive selection is based on suppression of an amber stop codon at a permissive site (Asp112) in the chloramphenicol acetyltransferase (CAT) gene. When E. coli cells harboring the MjTyrRS mutant library, the mutated CAT gene and a coexpressed Mj amber suppressor tRNACUA were grown on minimal media in the presence of pPRO-Phe (1 mM) and chloramphenicol (80 μg/mL), the only surviving cells are those cells that contain a mutant synthetase that aminoacylates the tRNACUA with either an endogenous amino acid or pPRO-Phe. The synthetase library genes were then transformed into cells containing a mutated gene encoding the toxic protein barnase, which has three amber mutations at permissive sites (Gln2, Asp44, Gly65). The vector carrying the barnase reporter also contained the suppressor tRNA. Growth of these cells in the absence of pPRO-Phe selected against synthetases capable of accepting endogenous amino acids as a substrate. After three rounds of selection, 96 clones were screened for growth rate dependence on the presence or absence of pPRO-Phe, and eight candidate clones were identified and sequenced. The polynucleotide and amino acid sequences of the eight clones is also provided in SEQ ID NOS: 4 through 19. […]
molecule,measurement,setting,value
B1,"chloramphenicol resistance on E. coli, IC50",in the absence of pPRO-Phe,5 µg/mL
same,"chloramphenicol resistance on E. coli, IC50",in the presence of pPRO-Phe,110 µg/mL
